Laboratory results reported in patent US9573983B2, “Compositions including I-domain antigen conjugate compounds and methods for treatment of autoimmune disorders” (University of Kansas, priority 2012, dated 2017).
Values joined by “and” are separate entries in the source; they are usually repeats but may differ in a detail not shown here. Identical values can stand only once.

How the values were obtained:
EAE mouse model = assay: Suppression of EAE, prophylactic and vaccine-like treatment (Example 2); assay type: in vivo, SJL/J female mice; conditions: for onset of disease (clinical scores): IDAC molecules; for body weight change: p<0.05, days 12-24; for change in body weight: p<0.005, days 12-24
Description: Six-to-eight week old SJL/J female mice were immunized subcutaneously with 200 μg PLP139-151 peptide in a 0.2 ml emulsion consisting of equal volumes of PBS and complete Freund's adjuvant (CFA) containing killed mycobacterium tuberculosis strain H37RA at a final concentration of 4 mg/ml (Difco, Detroit, Mich.). The PLP/CFA emulsion was administered to regions above the shoulder and the flanks (total of 4 sites, 50 μl at each injection site). In addition, 200 ng of pertussis toxin was injected intraperitoneally on the day of immunization (day 0) and 2 days post-immunization.
The mice then received either intravenous or subcutaneous injections of IDAC (10 or 26 nmol/injection) or peptides (100 nmol/injection for Ac-PLP-BPI-NH2-2 or 50 nmol/injection/mouse for Ac-PLP-cIBR1-NH2). The prophylactic disease suppression was carried out with subcutaneous or intravenous injections of IDAC molecules on days 4 and 7, or BPI molecules on days 4, 7, and 10. Mice receiving vaccine-like treatment were given subcutaneous injections of IDAC and BPI molecules at 11, 8, and 5 days prior to the induction of disease. As negative controls, mice were treated with PBS, 1-domain, and GMB-I-domain. Disease progression was evaluated by monitoring the change in weight of the mice and clinical scoring based on the severity of nerve damage ranging from 0 to 5: 0—no clinical symptoms of disease; 1—tail weakness or limp tail; 2—paraparesis (weakness or partial paralysis of one or two hind limbs); 3—paraplegia (complete paralysis of two hind limbs); 4—paraplegia with forelimb weakness or paralysis; 5—moribund (at this point, the affected mice were euthanized).
(§1) Statistical differences among the groups in clinical disease scores were determined by calculating the average score for each mouse from day 12 to day 17 by one-way analysis of variance followed by Fisher's least significant difference. Statistical differences in body weight among groups were also analyzed in the same fashion, but from day 12 to day 24. Comparison of cytokine concentrations was also performed by one-way analysis of variance. All analyses were performed using StatView (SAS Institute, Cary, N.C.).

mouse EAE model = assay: Suppression of EAE in PLP139-151/CFA-immunized mice (Example 1); assay type: in vivo, female inbred SJL/J mice
Description: Female inbred SJL/J mice, 5-7 weeks old, were randomly divided into different groups. All mice were immunized with PLP139-151 in Freund's complete adjuvant (CFA) to induce EAE, as reported previously (3, 4). The PLP/CFA emulsion (50 μL per site) was administered to four separate regions above the shoulder and on the flanks. In addition, 200 ng of pertussis toxin (List Biological Laboratories Inc., Campbell, Calif.) was injected intraperitoneally on day 0 and 2.
After disease stimulation, one group of mice received intravenous (i.v.) injections of 26 nmol/injection/day of the conjugate IDAC on days 4 and 7. The second and third groups of mice received i.v. injections of 100 nmol/injection/day of Ac-PLP-BPI-NH2-2 and 100 microliter of PBS, respectively, on days 4, 7, and 10. The animals were weighed and observed daily. Disease progression was evaluated observed using a blinded method as reported previously (3, 4). The clinical scores were rated using the following scale: 0—no clinical signs of disease; 1—tail weakness or limp tail; 2—paraparesis (weakness or incomplete paralysis of one or two hind limbs); 3—paraplegia (complete paralysis of two hind limbs); 4—paraplegia with forelimb weakness or paralysis; and 5—moribund or dead.
Statistical differences among the groups in clinical disease scores were determined by calculating the average score for each mouse from the day of disease onset to day 20 by One-way Analysis of Variance followed by Fisher's least significant difference using StatView (SAS Institute, Cary, N.C.). Statistical differences among the groups in body weight were also analyzed in the same way. The presence of significant difference is denoted with p-values of <0.05 or <0.001.

splenocytes = assay: Cytokine levels in vitro from splenocytes of treated EAE mice (Q-Plex ELISA); assay type: cell-based, female SJL/J (H-2^s) mice; conditions: IDAC-3 26 nmol/injection s.c. days 4 and 7
Description: Representative spleens for each group (IDAC-3 or PBS) from Study 2 were harvested from female SJL/J (H-2^s) mice on days 13 and 35. Splenocytes were dispersed by gently smashing the spleen using the coarse portion of a 1 ml syringe in a petri dish containing RPMI 1640 medium (10% FBS, […]). The cells were then filtered through a 40 micrometer strainer. After centrifugation, the red blood cells were lysed using “ACK lysis buffer,” and the remaining white blood cells were washed three times with medium. Splenocytes (5×10^6 cells/ml) were cultured in parallel in the presence of 20 μM PLP and blank RPMI medium. Supernatants were collected at a 72 h time-point for the measurement of cytokine levels. The samples were then analyzed using a fully quantitative ELISA-based Q-Plex™ Mouse Cytokine-Screen (Quansys Biosciences, Logan, Utah).
as §1

[1] = i.v. 26 nmol/injection days 4 and 7, vs PBS
[2] = i.v. 26 nmol/injection days 4 and 7, vs PBS, p<0.0005, days 12-17
[3] = 3 injections, vaccine-like s.c.
[4] = s.c. 26 nmol/injection days 4 and 7, vs PBS
[5] = vaccine-like s.c. 10 nmol on days -11, -8, -5

B1: (HSLGKWLGHPDKFC)n-linker-I-domain (conjugate, listed as Homo sapiens)
chain 1: HSLGKWLGHPDKFC
chain 2: MGNVDLVFLFDGSMSLQPDEFQKILDFMKDVMKKLSNTSYQFAAVQFSTSYKTEFDFSDYVKRKDPDALLKHVKHMLLLTNTFGAINYVATEVFREELGARPDATKVLIIITDGEATDSGNIDAAKDIIRYIIGIGKHFQTKESQETLHKFASKPASEFVKILDTFEKLKDLFTELQKKIY
modifications: maleimide linker conjugation, ~2.5 peptides; Chemically synthesized signal 1 moiety peptide with amino acids 139-151 of PLP protein modified with a terminal cysteine
notes: PLP-Cys-OH peptides conjugated via maleimide linkers to lysine residues of LFA-1 I-domain; average 2.5 peptides per I-domain
disease incidence (EAE mouse model; [1]): delays in disease incidence
onset of disease (clinical scores) (EAE mouse model; [1]): delayed the onset of disease
clinical scores (suppression of EAE) (EAE mouse model; [2]): significantly better at suppressing EAE than PBS
body weight change (EAE mouse model; [1]): significantly more effective than PBS in suppressing disease
clinical disease scores (suppression of EAE) (mouse EAE model; i.v., IDAC 26 nmol/injection days 4, 7, Ac-PLP-BPI-NH2-2 100 nmol/injection days 4, 7, 10, vs PBS, p<0.0001, days 12-17): significant efficacy to suppress the progress of EAE
incidence of disease (mouse EAE model; i.v., IDAC 26 nmol/injection days 4, 7, Ac-PLP-BPI-NH2-2 100 nmol/injection days 4, 7, 10, vs PBS, p<0.0001, days 12-24): delayed
change in body weight (mouse EAE model; i.v., IDAC 26 nmol/injection days 4, 7, vs PBS): prevent the changes of bodyweights of the mice significantly
efficacy compared with the BPI molecule (mouse EAE model; two i.v. injections of 26 nmol IDAC vs three of 100 nmol Ac-PLP-BPI-NH2-2): appeared less than that of the BPI molecule

B2: I-domain: LFA-1 I-domain protein, SEQ ID NO: 1; negative control and carrier protein (protein, listed as Homo sapiens)
chain: MGNVDLVFLFDGSMSLQPDEFQKILDFMKDVMKKLSNTSYQFAAVQFSTSYKTEFDFSDYVKRKDPDALLKHVKHMLLLTNTFGAINYVATEVFREELGARPDATKVLIIITDGEATDSGNIDAAKDIIRYIIGIGKHFQTKESQETLHKFASKPASEFVKILDTFEKLKDLFTELQKKIY
suppression of progress of EAE (clinical score, change in body weight, incidence of disease) (EAE mouse model; two i.v. injections, 26 nmol/injection, days 4 and 7, vs PBS): neither the I-domain nor GMB-I-domain significantly suppressed the progress of EAE
onset of disease (EAE mouse model; two i.v. injections, 26 nmol/injection, days 4 and 7, vs PBS, I-domain controls): slight delay in the onset of the disease

B3: (Ac-HSLGKWLGHPDKFC-NH2)n-linker-I-domain (conjugate, listed as Homo sapiens)
chain 1: HSLGKWLGHPDKFC
chain 2: MGNVDLVFLFDGSMSLQPDEFQKILDFMKDVMKKLSNTSYQFAAVQFSTSYKTEFDFSDYVKRKDPDALLKHVKHMLLLTNTFGAINYVATEVFREELGARPDATKVLIIITDGEATDSGNIDAAKDIIRYIIGIGKHFQTKESQETLHKFASKPASEFVKILDTFEKLKDLFTELQKKIY
modifications: Ac, NH2 caps; maleimide linker; Chemically synthesized signal 1 moiety peptide with amino acids 139-151 of PLP protein modified with a terminal cysteine
notes: Ac-PLP-Cys-NH2 (capped) peptides conjugated via maleimide linkers to lysine residues of I-domain
IL-5 level compared to PBS-treated group (splenocytes; day 13): no significant difference
IL-10 level (splenocytes; day 13): could not be detected
IL-2 level, PBS-treated vs IDAC-3-treated group (splenocytes; day 13, p<0.05): IL-2 cytokine levels were higher than in the IDAC-3-treated group
IL-2 level, PBS-treated vs IDAC-3-treated group (splenocytes; day 35): no significant difference
IL-17 level compared to PBS-treated group (splenocytes; day 35, p<0.0001): fourfold lower
IL-5 level compared to PBS-treated group (splenocytes; day 35, p<0.0005): significantly higher
IL-12 level compared to PBS-treated group (splenocytes; day 35, p<0.005): significantly lower
IL-10 level compared to PBS group (splenocytes; day 35, p<0.05): significantly higher levels
maximum toxic concentration (estimated therapeutic window) (EAE mouse model; [3]): 26 nmol
minimum effective concentration (estimated therapeutic window) (EAE mouse model; [3]): 10 nmol
clinical scores, IDAC-3 compared with IDAC-1 (EAE mouse model; i.v. 26 nmol/injection days 4 and 7, p<0.005, days 12-17): better than IDAC-1 in suppressing EAE
disease incidence (EAE mouse model; [1]): delays in disease incidence
onset of disease (clinical scores) (EAE mouse model; [1]): delayed the onset of disease
clinical scores (suppression of EAE) (EAE mouse model; [2]): significantly better at suppressing EAE than PBS
body weight change (EAE mouse model; [1]): significantly more effective than PBS in suppressing disease
disease incidence (EAE mouse model; [4]): significantly more efficacious than PBS in suppressing EAE
clinical scores (suppression of EAE) (EAE mouse model; s.c. 26 nmol/injection days 4 and 7, vs PBS, p<0.005, days 12-17): significantly more efficacious than PBS in suppressing EAE
change in body weight (EAE mouse model; [4]): significantly more efficacious than PBS in suppressing EAE
anaphylaxis (EAE mouse model; [5]): did not result in anaphylaxis
efficacy of low dose compared with 26 nmol dose (EAE mouse model; [5]): not as effective as the 26 nmol dose
efficacy of high dose compared with other groups (EAE mouse model; vaccine-like s.c. 26 nmol/injection days -11, -8, -5, four animals, no statistical analysis): seemed to be better than the lower dose (10 nmol/injection) group and similar to the Ac-PLP-BPI-NH2-2-treated group
toxic effect / adverse events (mice affected) (EAE mouse model; vaccine-like s.c. 26 nmol/injection, third injection (day -5)): two of six mice and 2 of the 6 mice
potency compared with Ac-PLP-BPI-NH2-2 (EAE mouse model; vaccine-like s.c. days -11, -8, -5, IDAC-3 10 nmol/injection vs Ac-PLP-BPI-NH2-2 100 nmol/injection): less potent than Ac-PLP-BPI-NH2-2
clinical scores (suppression of EAE) (EAE mouse model; vaccine-like s.c. days -11, -8, -5, IDAC-3 10 nmol/injection, Ac-PLP-BPI-NH2-2 100 nmol/injection, vs PBS, p<0.005, days 12-17): significantly better clinical scores
change in body weight (EAE mouse model; vaccine-like s.c. days -11, -8, -5, IDAC-3 10 nmol/injection, Ac-PLP-BPI-NH2-2 100 nmol/injection, vs PBS): significantly better
onset of disease (incidence of disease) (EAE mouse model; vaccine-like s.c., IDAC-3 26 nmol/injection days -11, -8, Ac-PLP-BPI-NH2-2 100 nmol/injection days -11, -8, -5): Delay in the onset of disease
relapse of disease (long-term effect) (EAE mouse model; vaccine-like s.c., IDAC-3 26 nmol/injection days -11, -8, Ac-PLP-BPI-NH2-2 100 nmol/injection days -11, -8, -5, days 45-55): long-term effect in suppressing relapse of the disease
clinical scores (suppression of EAE) (EAE mouse model; vaccine-like s.c., IDAC-3 26 nmol/injection days -11, -8, vs PBS, p<0.0001, days 12-17 and 45-55): suppressed EAE significantly better than PBS
change of body weight (EAE mouse model; vaccine-like s.c., IDAC-3 26 nmol/injection days -11, -8, vs PBS, p<0.0001, days 12-24): suppressed EAE significantly better than PBS
